Article PMC12209437, “Tailoring a novel colorectal cancer stem cell-targeted therapy by inhibiting the SMYD3/c-MYC axis” (Signal Transduction and Targeted Therapy, 2025)

B1: full-length HIS-tagged SMYD3 recombinant protein (enzyme, human, UniProt Q9H7B4 1-428, looked up)
chain: MEPLKVEKFATAKRGNGLRAVTPLRPGELLFRSDPLAYTVCKGSRGVVCDRCLLGKEKLMRCSQCRVAKYCSAKCQKKAWPDHKRECKCLKSCKPRYPPDSVRLLGRVVFKLMDGAPSESEKLYSFYDLESNINKLTEDKKEGLRQLVMTFQHFMREEIQDASQLPPAFDLFEAFAKVICNSFTICNAEMQEVGVGLYPSISLLNHSCDPNCSIVFNGPHLLLRAVRDIEVGEELTICYLDMLMTSEERRKQLRDQYCFECDCFRCQTQDKDADMLTGDEQVWKEVQESLKKIEELKAHWKWEQVLAMCQAIISSNSERLPDINIYQLKVLDCAMDACINLGLLEEALFYGTRTMEPYRIFFPGSHPVRGVQVMKVGKLQLHQGMFPQAMKNLRLAFDIMRVTHGREHSLIEDLILLLEECDANIRAS
notes: SMYD3 (lysine methyltransferase SET and MYND Domain Containing 3), full length, from the plasmid pET28-MHL-SMYD3 (Addgene 32048); no species is printed for the Addgene plasmid; also called HIS-SMYD3; HIS-SMYD3 fusion protein; source: E. coli BL21 (DE3), purified (Dynabeads HIS-Tag Isolation and Pulldown)

Assays:
Settings in all cases: both partners purified
[1] = target: B1; experiment: pull-down; competition assay: 500 ng HIS-SMYD3 and 200 ng untagged full-length c-MYC, 1 h at 4 °C, with escalating doses (0, 1, 5, 25, 125 µM) of P14, P14ext1 or P14ext2; precipitated on histidine beads, immunoblot with anti-c-MYC and anti-HIS
[2] = target: T1, untagged human full-length c-MYC protein (human, UniProt P01106-2 1-454); experiment: pull-down; HIS-SMYD3 incubated with recombinant c-MYC or FLAG c-MYC fragments for 1 h at 4 °C, precipitated with Dynabeads HIS-Tag Isolation and Pulldown, washed in buffer A (20 mM Tris-HCl pH 8, 150 mM KCl, 5 mM MgCl2, 0.2 mM EDTA, 10% glycerol, 0.1% NP-40, 1 mM DTT), immunoblot
T1 construct: c-MYC, human, full length, untagged; also called c-MYC recombinant protein; untagged recombinant c-MYC protein; source: bought: Abcam ab169901, expressed in E. coli

[3] = target: B1; experiment: as above

| binding result [1] | Binder | also measured |
| --- | --- | --- |
| binds | EEENFYQQQ (numbers count on the 454-residue isoform; source: bought: custom purchased from Thermo Fisher Scientific) [P14 ext1 (E42EENFYQQQ50)] | – |
| – | B1 | binding result [2]: binds |
| – | FLAG c-MYC M3 (aa 1-165) (domain or fragment, human, UniProt P01106-2 1-165, looked up, c-MYC, human, residues 1-165 of the 454-residue form; amplified from p3xFLAG CMV14 c-MYC-WT, itself made from pcDNA3-c-MYC (Addgene 16011); Vector p3xFLAG-CMV14 (Sigma E7908); also called p3xFLAG CMV14 c-MYC-M3) MDFFRVVENQQPPATMPLNVSFTNRNYDLDYDSVQPYFYCDEEENFYQQQQQSELQPPAPSEDIWKKFELLPTPPLSPSRRSGLCSPSYVAVTPFSLRGDNDGGGGSFSTADQLEMVTELLGGDMVNQSFICDPDDETFIKNIIIQDCMWSGFSAAAKLVSEKLA | binding result [3]: binds |
| binds | PYFYCDEEENFYQQQQQSEL (numbers count on the 454-residue isoform; source: bought: custom purchased from Thermo Fisher Scientific) [P14 ext2 (P36YFYCDEEENFYQQQQQSEL55)] | – |
